{"source": "patent US20130137180", "key": {"[1]": {"tested_on": "AAVS1 ZFN right (synthetic)", "assay": "cell_activity", "details": "pair with left ZFN; A549 clones positive for HindIII site (308 of 933); none with oligo alone"}, "[2]": {"tested_on": "AAVS1 ZFN left (synthetic)", "assay": "cell_activity", "details": "pair with right ZFN; A549 clones positive for HindIII site (308 of 933); none with oligo alone"}}}
{"sequence": "TAGGGACAGGAT (double strand) [AAVS1 right ZFN binding site]", "values": [{"measurement": "activity", "setting": "[1]", "result": 33, "unit": "%"}]}
{"sequence": "ACCCCACAGTGG (double strand) [AAVS1 left ZFN binding site]", "values": [{"measurement": "activity", "setting": "[2]", "result": 33, "unit": "%"}]}
